Source: the DeepSol protein solubility set

Assay: soluble on expression in E. coli; label from the status in PepcDB or PDB records

Sequence | soluble on expression in E. coli
MPPQPQIMVDLQMEQVMPNPDLKNIARLISQDPGLSGALLKLVNSPFFGLANRITSIQRAVNLLGSRSVINLINAQSIKGEMSDDTIVTLNRFWDTAQDVAMSCLSLAKRIGYESVDEAYALGLFHNCGIPLMLKRFPHYMAVLEEAYAAASDERRVVDTENRVLNTNHAVVGYYTARSWRLPEHVCEAIANHHNALSIFGDESARDTQLKNLLAILKMAEHICGSHRVLGNQPEDHEWNSIGALVLDYVGLTDYDFENLKGSILELGVGQGSY | not soluble
MSLIAPLLVIEDEPAVMSFVRRALERGGYTVVGANSGMQALELLKGQQFQGIISDMRTPGNVDGGGVYHWIREHRPELANRIVFITGDIVNEETVAVLKETGAPCVEKPFRVQDLIATVENTIGKPQQETEGHHHHHH | soluble
MNKIAIQKPNIPENLQTADFHDAVTQDDVISMHLFEDCTICGEDIERLCVEKTVFRNVVFIDVSFRHIELTDVIFEKCDLSNADFSGAVIHRTSVKQSKMVGMNVAEATLRNVSFEECHGHFSSFSYSNMKQVRFDHCALMQSECSDTVLQQTHFDGCELEGASFTGTSLQNMDISTCRFEQLHVSLDKLKGCKIAPEHAIAFARALGAVIVLEHHHHHH | soluble
MAHHHHHHMDNSIKIKSAFLKENVGVKITGPCDEGFGLVMVPHIIINVDTRNTDIQLGKKSSEINYGIKLRKKGKDEYEEKVGIDLLKNVCETGKNFKFVAYIKGDELIIKWKVIEEGNIPIDIKKFKIKRMSPPITSIQVFSSMSDEKSFVLENKNYVVTNNMPEKCEALATNCFLSGNIDIEKCYQCSLLVENDSKSDVCYNFISRENKEKLNEERFKVKGSTEYEESVESELKGAIDLLISSFYKSDGENGENVLISFEDLNSTLEDDIINFCSLLKLVDLSGTFMNHQIGTTADAFNNIVKLLKEHKEEDEFVLRTKLRNPALCMKNVDDWVKSRCGLLTSDDSYVVIKKNSDTNGKNENNESNDEEYDGVIDLSTNENGNVKSIQFNDDIYCNDDYCNRWKNENNCISKIGVEDQGNCASSWAFASKLHFETLRCMKGYDHLGISALYLTNCSKGKISKRCTEGGNPSEFLEIVSNSGFLPTEFDYPYFYALVENSCPSGLNKWINLWEDVKLFDYKYEPNSIGSKGYSVYKSEMFKDNMDEYVKMIKSEIKNKGSVIAYINAQSVLTYDFNGKNILNMCGSKTTDHSINVIGYGHYKNKEGEEKSYWLVRNSWGYYWGDEGNFKVDMYGPSNCNYHFINTVLVFNIDIPMMNNNENNKKGLYNYFPKYTHEFYHNFYDQNFGSDNKISLINSNGSNKNDVNNAYTVHGQSGETEVQPSQLRSTANQDSNRGAVTSDPLRTQPETTSTSVKKMDVFQVLKHVKNSKIKVGLIKYDNDDEIGAHHSCTRAYSFDPEKYDECVEFCRKNWEQCKDKPSPGFCLTKLDESKGCFFCYV | not soluble
GMINTKEDFLLLIKQIEQKSGYKKPKAFGIARLDRGQLNKNKILQASFALINYEQNFGSAAIMLEAFMQRGVEIDFNASEFVQTLKLEDIDFALSCFKPFLEEDGHQNIDLLKIIKDKFKDDEFSFVCLFEDKEPLSVESIYLKLYLLSTKKVPLRSINLNGAFGLLSNVAWSDDKPIELEYLRANEMRLKMSNQYPKIDFVDKFPRFLAHIIPEDNTRILESSKVRMGASLAAGTTIMPGASYVNFNAGTTGACMVEGRISSSAIVGEGSDVGGGASILGVLSGTSGNAISVGKACLLGANSVTGIPLGDNCIVDAGIAVLEGTKFLLKDAEELAKLNPYFNFDKEIYKGLELKGLNGLHFRQDSISGAMIVALNKKAVKLNEALH | soluble
MGSDKIHHHHHHMKIPKRLQPLVDDGLIDDVLQRLKSGKEADVYTVLCGDKIQCAKVYKEAMQRSFKQAVQYQEGRKVRNTRNARAMQKSSKFGRKQQEESWQTAEVEALFRLANAGVRVPQPYICIDGVLLMELVTDVDGAVAPRLSDVILTEESAIADFDTMIRNIVRMLCVGIVHGDLSEFNVLIDAQGPVIIDLPQAVDAAANNHAESMFARDVNNITAYYGQFAPQLLQTRYAQEIWMLYEDGKLTPETALTGLFVEAVHEVDMGSLIDEIIAAEDEFYERQRAKKERDDE | not soluble
MAKLFAYQIGQNPRIQTDLLVDPQLFEDEHGCMGAVGFGLADCVQTGMFTDIEVIKRYLHEATYVFINGDFDRLSYLEIGIALSLGKTLYVITMNPNVTKEDLGIPFDNATIEFLSPSAFTERIHETEAAEN | not soluble
MGHHHHHHSHMRSVSYVQRVALEFSGSLFPHAICLGDVDNDTLNELVVGDTSGKVSVYKNDDSRPWLTCSCQGMLTCVGVGDVCNKGKNLLVAVSAEGWFHLFDLTPAKVLDASGHHETLIGEEQRPVFKQHIPANTKVMLISDIDGDGCRELVVGYTDRVVRAFRWEELGEGPEHLTGQLVSLKKWMLEGHHDKPGITQGTGIAIVNK | not soluble
MKTQRIIHPNIDIRKFPEVNTDFSMTDISMGDLHANALLFLNILVRQGIIAISPENYAKFAEIYTLPELQADYWGTEAPVFSAENKQERLEEIKKQYNALIAQIKIINTKKLIRLIGDELVDRGVIDYFILKLLQALYDQGADFEILLSNHGIEFVEACELFKENGNKLVAKRLGNIQHGNSFHALQEAIAAGAISNEEVLNIYHQVYKKHLKIISYSLDPDANEIKVFSHAGIGLNHIRGLARKFKVPYSEESAVDLAKTIDAINKKFAEKASSGEIHTLYTHDMMYRGYAGEHLNSTDEVVAATVWGREYGDLIRTSKKFKITFIHGHDSYDPEKVEHVTLNNQLGQFQNNVGDLYLYATNGMRAVPTQYLNPDKKIQGSREKDRPDKPNDYVVKIHHTKPSFFKTSNPKITFPDSYKRIWDSADGDSNITKIKALLKDYTKEDSILGSFWGLIFTLHWGRHHVKSVHQIAQTKYTSVEAILSDLKALKPREGGSLDKRIKFIELQIIAQRCDSPEPQFNLK | not soluble
MHHHHHHSSGLVPRGSGMKETAAAKFERQHMDSPDLGTDDDDKAMGCQKAVSPAAETAAVSPSVDAARLEPRVEERDGFWVLKEEFRSGINPAEKVKIEKDPMKLFIEDGISDLATLSMEEVDKSKHNKDDIDVRLKWLGLFHRRKHHYGRFMMRLKLPNGVTTSEQTRYLASVIKKYGKDGCADVTTRQNWQIRGVVLPDVPEIIKGLESVGLTSLQSGMDNVRNPVGNPLAGIDPHEIVDTRPFTNLISQFVTANSRGNLSITNLPRKWNPCVIGSHDLYEHPHINDLAYMPATKNGKFGFNLLVGGFFSIKRCEEAIPLDAWVSAEDVVPVCKAMLEAFRDLGFRGNRQKCRMMWLIDELGMEAFRGEVEKRMPEQVLERASSEELVQKDWERREYLGVHPQKQQGLSFVGLHIPVGRLQADEMEELARIADVYGSGELRLTVEQNIIIPNVENSKIDSLLNEPLLKERYSPEPPILMKGLVACTGSQFCGQAIIETKARALKVTEEVQRLVSVTRPVRMHWTGCPNSCGQVQVADIGFMGCMTRDENGKPCEGADVFVGGRIGSDSHLGDIYKKAVPCKDLVPVVAEILINQFGAVPREREEAE | soluble
MGSDKIHHHHHHMKIDVEAFRVLSILVEEGSFSKAAERLHKAQSAVSYQVKKLEQHLGVKLFCRDQYRAELTPEGKVILAEGKRLLQYLGNIEHLASRFSEGWEPKLELVVDGSLPMEPIMRALKRVSEHKIPTKIQLNMEFLGGVQHRFERDNADLMLVKDYRTGPNYRPQPLPDINSILVVSRSHPLAKAKELSLFELLQHVELTIEDSSPGKIHSDELQFGGDKVFYLSGFIMKKNALLMGLGFGWMPDFLIQEELASGELQELDFLGGSRYSFTPQLVSTMERPLGRAGRLFTSLILEEFNLYQAQASR | not soluble
MSQATQQLDETRLALADALQAGNWDAIGELDQVCQVKIDQAMHDDERDEQALRVSLEQLLSLYNDMLSACRQQREAIGAELTGLQRASKGAKVYQMFG | not soluble
MSAIKEVKSELRQFMKTLLGKISKEETQRQTEAVFEKIIESKWFQESKRLSVYVSTSGEIQTDSIIQKALEMGKEVFIPQFTKGSTAMDMVRVPDQTAFDNLPSTLWGIRQPEPKWKWQSYHETGPLDLILAPGVAFSPYGLRCGHGKGYYDRFFSTHHKHFPENSPKKIGLALREQIIGTIPISETDVELDEVIYEGETIIFDTI | soluble
RVMLRQTQYLNEAIKLMASKNLSVPFGMDCKDEYGDVARELEKTRRQLHDVIQMQINASDELATLTEVMTLSMSETKESA | not soluble
